For the data set the following is noted: Bos taurus, whole UniProt chain shown.
The mark [1] stands for this setting: pH 7, 25 °C, GdnHCl, Absorbance, MOPS 30 mM, reversible: yes.
Where [2] appears, read: pH 7, 25 °C, GdnHCl, Fluorescence, MOPS 30 mM, reversible: yes.
Setting [3] is: pH 7, 25 °C, GdnSCN, Fluorescence, MOPS 30 mM, reversible: YES.
[4] abbreviates: pH 7.2, 25 °C, Urea, CD, Phosphate 20 mM, reversible: yes.
The mark [5] stands for this setting: pH 7.4, Thermal, DSC, sodium phosphate 50 mM, reversible: yes.
Where [6] appears, read: pH 6.8, 27 °C, GdnHCl, Absorbance, Sodium phosphate 50 mM, NaCl 50 mM, reversible: no.
Where [7] appears, read: pH 7.2, Thermal, DSC, phosphate 20 mM, transition: 3, reversible: no.
[8] abbreviates: pH 7.5, 25 °C, Urea, CD, Tris-HCl 20 mM, reversible: yes.
Where [9] appears, read: pH 9, 25 °C, Urea, CD, Tris-HCl 20 mM, reversible: yes.
Where [10] appears, read: pH 7.4, 23 °C, GdnHCl, CD, Sodium phosphate 200 mM, reversible: yes.

Several values for one entry are separate records, joined by “and”; a condition that tells them apart may be missing. Equal values may be shown once.

B1: Cytochrome b5 wild type, P00171 (protein)
chain: MAEESSKAVKYYTLEEIQKHNNSKSTWLILHYKVYDLTKFLEEHPGGEEVLREQAGGDATENFEDVGHSTDARELSKTFIIGELHPDDRSKITKPSESIITTIDSNPSWWTNWLIPAISALFVALIYHLYTSEN
The Tm is the temperature at which the thermal transition is half complete. Regarding B1, the unfolding free energy is, setting by setting: (pH 7, 10 °C, GdnHCl, Fluorescence, MOPS 30 mM, reversible: yes) 2.77 kcal/mol; under setting [1], 6.57 kcal/mol; under setting [2], 6.09 kcal/mol; under setting [3], 3.2 kcal/mol and 2.7 kcal/mol; (pH 7, 25 °C, Thermal, DSC, sodium phosphate 50 mM, reversible: yes) 5.98 kcal/mol; under setting [4], 6.57 kcal/mol. Besides, the “denaturant midpoint (higher = more stable)” value turned out to be 1.52 M (pH 7, 25 °C, GdmSCN, UV/visible spectrophotometer, MOPS 30mM); 3.05 M under setting [1]; 2.99 M under setting [2]. For the same protein, the denaturant m value reads like this: under setting [1], 2.14 kcal/mol/M; under setting [2], 2.05 kcal/mol/M; under setting [3], 2.4 kcal/mol/M and 1.7 kcal/mol/M; under setting [4], 0.93 kcal/mol/M. Further, the Tm is, setting by setting: (pH 7, Thermal, Fluorescence, potassium phosphate 50 mM, reversible: YES) 85.5 °C; (pH 7, Thermal, UV spectroscopy, Sodium phosphate 50 mM, reversible: Yes) 79.4 °C; (pH 7, Thermal, UV/visible spectrophotometer, Potassium phosphate 50mM) 67.6 °C; under setting [5], 70.7 °C. Besides, the “unfolding enthalpy (van 't Hoff)” value (pH 7.2, Thermal, Absorbance, Phosphate 20 mM, reversible: yes) is 82.5 kcal/mol and 33.9 kcal/mol. For the same protein, the “heat capacity change of unfolding” value under setting [5] came out at 0.13 kcal/mol/K.

B2: Beta-crystallin B2 wild type, P02522 (protein)
chain: MASDHQTQAGKPQPLNPKIIIFEQENFQGHSHELNGPCPNLKETGVEKAGSVLVQAGPWVGYEQANCKGEQFVFEKGEYPRWDSWTSSRRTDSLSSLRPIKVDSQEHKITLYENPNFTGKKMEVIDDDVPSFHAHGYQEKVSSVRVQSGTWVGYQYPGYRGLQYLLEKGDYKDSGDFGAPQPQVQSVRRIRDMQWHQRGAFHPSS
As for B2, for the setting “pH 7.2, Thermal, fluorescence, sodium phospahte 20 mM, NaCl, transition: 2”, the Tm is 56.8 °C.

B3: Gamma-crystallin B wild type, P02526 (protein)
chain: MGKITFYEDRGFQGHCYECSSDCPNLQPYFSRCNSIRVDSGCWMLYERPNYQGHQYFLRRGDYPDYQQWMGFNDSIRSCRLIPQHTGTFRMRIYERDDFRGQMSEITDDCPSLQDRFHLTEVHSLNVLEGSWVLYEMPSYRGRQYLLRPGEYRRYLDWGAMNAKVGSLRRVMDFY
For B3, under setting [6], the denaturant m value is 1.3 kcal/mol/M and 0.9 kcal/mol/M; the “denaturant midpoint (higher = more stable)” value was 3 M and 1.3 M. Further, the “unfolding enthalpy (calorimetric)” value (pH 7.2, Thermal, DSC, phosphate 20 mM, reversible: no) is 82.3 kcal/mol and 149 kcal/mol and 90 kcal/mol. Also, under setting [7], the “unfolding enthalpy (calorimetric)” value was 126 kcal/mol and 148 kcal/mol; the “unfolding enthalpy (van 't Hoff)” value was 110 kcal/mol and 71 kcal/mol.

B4: Spermadhesin-1 wild type, P29392 (protein)
chain: MKLSSVIPWALLLSTATVDSMDWLPRNTNCGGILKEESGVIATYYGPKTNCVWTIQMPPEYHVRVSIQYLQLNCNKESLEIIDGLPGSPVLGKICEGSLMDYRSSGSIMTVKYIREPEHPASFYEVLYFQDPQA
Regarding B4, the midpoint of thermal melting (Tm) (pH 7, Thermal, DSC, sodium phosphate 10 mM, reversible: no) is 78.6 °C.

B5: Chymosin wild type, P00794 (protein)
chain: MRCLVVLLAVFALSQGAEITRIPLYKGKSLRKALKEHGLLEDFLQKQQYGISSKYSGFGEVASVPLTNYLDSQYFGKIYLGTPPQEFTVLFDTGSSDFWVPSIYCKSNACKNHQRFDPRKSSTFQNLGKPLSIHYGTGSMQGILGYDTVTVSNIVDIQQTVGLSTQEPGDVFTYAEFDGILGMAYPSLASEYSIPVFDNMMNRHLVAQDLFSVYMDRNGQESMLTLGAIDPSYYTGSLHWVPVTVQQYWQFTVDSVTISGVVVACEGGCQAILDTGTSKLVGPSSDILNIQQAIGATQNQYGEFDIDCDNLSYMPTVVFEINGKMYPLTPSAYTSQDQGFCTSGFQSENHSQKWILGDVFIREYYSVFDRANNLVGLAKAI
Consider B5, for which the unfolding free energy under setting [8] came out at 6.45 kcal/mol; the unfolding free energy under setting [9] was 3.56 kcal/mol and 3.47 kcal/mol.

B6: Pepsin A wild type, P00792 (protein)
chain: MSVVKIPLVKKKSLRQNLIENGKLKEFMRTHKYNLGSKYIREAATLVSEQPLQNYLDTEYFGTIGIGTPAQDFTVIFDTGSSNLWVPSIYCSSEACTNHNRFNPQDSSTYEATSETLSITYGTGSMTGILGYDTVQVGGISDTNQIFGLSETEPGSFLYYAPFDGILGLAYPSISSSGATPVFDNIWDQGLVSQDLFSVYLSSNEESGSVVIFGDIDSSYYSGSLNWVPVSVEGYWQITVDSITMNGESIACSDGCQAIVDTGTSLLAGPTTAISNIQSYIGASEDSSGEVVISCSSIDSLPDIVFTINGVQYPVPPSAYILQSNGICSSGFEGMDISTSSGDLWILGDVFIRQYFTVFDRGNNQIGLAPVA
As for B6, the unfolding free energy under setting [8] worked out at 6.36 kcal/mol and the unfolding free energy under setting [9] is 2.72 kcal/mol.

B7: Thiosulfate sulfurtransferase wild type, P00586 (protein)
chain: MVHQVLYRALVSTKWLAESVRAGKVGPGLRVLDASWYSPGTREARKEYLERHVPGASFFDIEECRDKASPYEVMLPSEAGFADYVGSLGISNDTHVVVYDGDDLGSFYAPRVWWMFRVFGHRTVSVLNGGFRNWLKEGHPVTSEPSRPEPAIFKATLNRSLLKTYEQVLENLESKRFQLVDSRAQGRYLGTQPEPDAVGLDSGHIRGSVNMPFMNFLTEDGFEKSPEELRAMFEAKKVDLTKPLIATCRKGVTACHIALAAYLCGKPDVAIYDGSWFEWFHRAPPETWVSQGKGGKA
In the case of B7, under setting [10], the denaturant m value is 2.34 kcal/mol/M and the unfolding free energy came out at 3.39 kcal/mol.
